Measured values: publication doi:10.1101/543108

Biological target: ATP synthase c-subunit (c10-ring) (Polytomella sp.)
Test: cryo-EM structure

**Q.** “ATP synthase c-subunit (c10-ring) (natural protein)” was tested. Which stoichiometry N did it give?
**A.** 10
